# Results published in paper PMC2988878 (Nature structural & molecular biology, 2010).
# Several values for one entry are separate records, joined by “and”; a condition that tells them apart may be missing. Equal entries are not always repeated.
# T1: Mycobacterium proteasomal ATPase Mpa, residues 1-234 (Mpa1-234) (Mycobacterium tuberculosis, UniProt P9WQN5 1-234)
# T1 sequence: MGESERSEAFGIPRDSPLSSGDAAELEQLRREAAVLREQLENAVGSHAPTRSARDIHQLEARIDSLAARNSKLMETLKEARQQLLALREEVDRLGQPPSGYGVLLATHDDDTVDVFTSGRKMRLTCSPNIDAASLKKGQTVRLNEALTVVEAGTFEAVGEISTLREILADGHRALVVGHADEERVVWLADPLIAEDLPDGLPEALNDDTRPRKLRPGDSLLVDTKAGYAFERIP
# B1: Full-length prokaryotic ubiquitin-like protein, Pup1-64-GGQ with a C-terminal non-cleavable His6-tag (natural protein)
# chain: MAQEQTKRGGGGGDDDDIAGSTAAGQERREKLTEETDDLLDEIDDVLEENAEDFVRAYVQKGGQ
# B2: Mpa coiled-coil domain, residues 46-96 (Mpa46-96) (domain or fragment)
# chain: SHAPTRSARDIHQLEARIDSLAARNSKLMETLKEARQQLLALREEVDRLGQ
# What was measured:
# [1] = molecular target: Pup (Mycobacterium tuberculosis) (UniProt P9WHN5); test: anisotropy; details: cited from earlier work
# [2] = molecular target: T1, Mycobacterium proteasomal ATPase Mpa, …; test: crystal structure
# [3] = molecular target: the molecule itself; test: crystal structure
molecule,measurement,setting,value
Mpa (from UniProt P9WQN5),Kd,[1],4.2 µM and 3.4 µM
B1,binding result,[2],binds
B2,stoichiometry N,[3],2
